Experimental findings from publication PMC3386190, “The Rhoptry Proteins ROP18 and ROP5 Mediate Toxoplasma gondii Evasion of the Murine, But Not the Human, Interferon-Gamma Response” (PLoS Pathogens, 2012) are described below.

The series concerns the molecule itself. The experiment in a line: dynamic light scattering; 20 µM Irga6 with 10 mM GTP at 37°C in 50 mM Tris/5 mM MgCl2/2 mM DTT, in the presence or absence of 40 µM (His6)-MBP-tagged ROP5-CIII or (His6)-MBP; mean hydrodynamic radius over 35 minutes.

B1: Recombinant Irga6 (residues 1-413) (natural protein)
chain: MGQLFSSPKSDENNDLPSSFTGYFKKFNTGRKIISQEILNLIELRMRKGNIQLTNSAISDALKEIDSSVLNVAVTGETGSGKSSFINTLRGIGNEEEGAAKTGVVEVTMERHPYKHPNIPNVVFWDLPGIGSTNFPPNTYLEKMKFYEYDFFIIISATRFKKNDIDIAKAISMMKKEFYFVRTKVDSDITNEADGKPQTFDKEKVLQDIRLNCVNTFRENGIAEPPIFLLSNKNVCHYDFPVLMDKLISDLPIYKRHNFMVSLPNITDSVIEKKRQFLKQRIWLEGFAADLVNIIPSLTFLLDSDLETLKKSMKFYRTVFGVDETSLQRLARDWEIEVDQVEAMIKSPAVFKPTDEETIQERLSRYIQEFCLANGYLLPKNSFLKEIFYLKYYFLDMVTEDAKTLLKEICLRN
notes: immunity-related GTPase Irga6, mouse, residues 1-413; a TEV cleavage site stands between the tags and the protein; source: recombinant (Lim et al., submitted)
As for B1, the binding result is listed as “binds”.
